Our source for the stoichiometry N values is PMC5832301.

The target in the test is UDP-glucose pyrophosphorylase from sugarcane (ScUGPase-1) (sugarcane (Saccharum spp. hybrids)). Description: SEC-MALS; sample of the larger oligomeric form peak; Superdex 200 increase 5/150, room temperature, 2.0 mg/mL, 20 mM Tris/HCl pH 8.0, 20 mM NaCl. In general terms: Size exclusion chromatography separates by hydrodynamic size, large species first.

By stoichiometry N is commonly meant the number of molecules, sites or subunits per partner or assembly. As to “UDP-glucose pyrophosphorylase from sugarcane (ScUGPase-1) (from UniProt A0A075E2Q1 1-476) (enzyme)”, the stoichiometry N is 8.
